Patent publication US20230143604A1, “QW DOSING OF GIP RECEPTOR AGONIST PEPTIDE COMPOUNDS AND USES THEREOF” (TAKEDA PHARMACEUTICAL COMPANY LIMITED, priority 2020, published 2023)
Starred links: 1 amine or outer side, 2 acyl side, 3 side chain; linkers in the order of their positions; H or OH if unused. Non-standard residues stand in square brackets, D forms with d. Groups on a side chain read outwards from the residue. No end group written: not given here. *: point of attachment. C18 diacid = O=C(O)CCCCCCCCCCCCCCCCC(=O)*; C17 diacid = O=C(O)CCCCCCCCCCCCCCCC(=O)*; γGlu = O=C(O)[C@H](CCC(=O)[*:2])N[*:1]; NMeY = CN[C@@H](Cc1ccc(O)cc1)C(=O)O; AEEA = NCCOCCOCC(=O)O; E1 = not defined here; K1 = not defined here; Aib = CC(C)(N)C(=O)O

T1: full-length human GIPR with an N-terminal FLAG tag (human, UniProt P48546 22-466)
T1 sequence (looked up): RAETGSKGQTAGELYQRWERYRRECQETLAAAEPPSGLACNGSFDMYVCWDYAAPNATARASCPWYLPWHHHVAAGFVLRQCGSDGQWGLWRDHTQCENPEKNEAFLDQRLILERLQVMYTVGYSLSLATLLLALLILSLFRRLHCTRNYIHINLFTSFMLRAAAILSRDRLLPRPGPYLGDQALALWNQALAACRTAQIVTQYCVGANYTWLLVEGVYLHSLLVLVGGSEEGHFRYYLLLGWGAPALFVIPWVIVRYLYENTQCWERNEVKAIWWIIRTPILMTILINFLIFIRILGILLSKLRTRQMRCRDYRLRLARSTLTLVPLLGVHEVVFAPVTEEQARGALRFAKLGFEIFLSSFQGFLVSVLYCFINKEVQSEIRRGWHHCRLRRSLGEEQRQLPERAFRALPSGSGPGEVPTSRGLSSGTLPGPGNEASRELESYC

B1: Compound No. 121 (peptide)
peptide: YXEGTFISDYSIAXDRXAQKDFVEWLLAQRG
modifications: N-methyl Tyr 1; Aib at 2,17; Lys(G5-C18 diacid) at 14; 'K1' at 20 and 'E1' at 24 as printed; C-terminal OH
B2: Compound No. 10 (peptide)
peptide: [NMeY][Aib]EGTFISDYSIAK([AEEA-AEEA-γGlu-C17 diacid])DR[Aib]AQ[Aib]NFVNWLLAQS-OH
modifications: N-terminus assumed
SMILES: CC[C@H](C)[C@H](NC(=O)[C@H](CO)NC(=O)[C@H](Cc1ccc(O)cc1)NC(=O)[C@H](CC(=O)O)NC(=O)[C@H](CO)NC(=O)[C@@H](NC(=O)[C@H](Cc1ccccc1)NC(=O)[C@@H](NC(=O)CNC(=O)[C@H](CCC(=O)O)NC(=O)C(C)(C)NC(=O)[C@H](Cc1ccc(O)cc1)NC)[C@@H](C)O)[C@@H](C)CC)C(=O)N[C@@H](C)C(=O)N[C@@H](CCCCNC(=O)COCCOCCNC(=O)COCCOCCNC(=O)CC[C@H](NC(=O)CCCCCCCCCCCCCCCC(=O)O)C(=O)O)C(=O)N[C@@H](CC(=O)O)C(=O)N[C@@H](CCCNC(=N)N)C(=O)NC(C)(C)C(=O)N[C@@H](C)C(=O)N[C@@H](CCC(N)=O)C(=O)NC(C)(C)C(=O)N[C@@H](CC(N)=O)C(=O)N[C@@H](Cc1ccccc1)C(=O)N[C@H](C(=O)N[C@@H](CC(N)=O)C(=O)N[C@@H](Cc1c[nH]c2ccccc12)C(=O)N[C@@H](CC(C)C)C(=O)N[C@@H](CC(C)C)C(=O)N[C@@H](C)C(=O)N[C@@H](CCC(N)=O)C(=O)N[C@@H](CO)C(=O)O)C(C)C
B3: Compound No. 125 (peptide)
peptide: [NMeY][Aib]EGTFISDYSIALDR[Aib]AQ[Aib]K([AEEA-AEEA-γGlu-γGlu-C17 diacid])FVNWLLAQSPG-OH
modifications: N-terminus assumed
SMILES: CC[C@H](C)[C@H](NC(=O)[C@H](CO)NC(=O)[C@H](Cc1ccc(O)cc1)NC(=O)[C@H](CC(=O)O)NC(=O)[C@H](CO)NC(=O)[C@@H](NC(=O)[C@H](Cc1ccccc1)NC(=O)[C@@H](NC(=O)CNC(=O)[C@H](CCC(=O)O)NC(=O)C(C)(C)NC(=O)[C@H](Cc1ccc(O)cc1)NC)[C@@H](C)O)[C@@H](C)CC)C(=O)N[C@@H](C)C(=O)N[C@@H](CC(C)C)C(=O)N[C@@H](CC(=O)O)C(=O)N[C@@H](CCCNC(=N)N)C(=O)NC(C)(C)C(=O)N[C@@H](C)C(=O)N[C@@H](CCC(N)=O)C(=O)NC(C)(C)C(=O)N[C@@H](CCCCNC(=O)COCCOCCNC(=O)COCCOCCNC(=O)CC[C@H](NC(=O)CC[C@H](NC(=O)CCCCCCCCCCCCCCCC(=O)O)C(=O)O)C(=O)O)C(=O)N[C@@H](Cc1ccccc1)C(=O)N[C@H](C(=O)N[C@@H](CC(N)=O)C(=O)N[C@@H](Cc1c[nH]c2ccccc12)C(=O)N[C@@H](CC(C)C)C(=O)N[C@@H](CC(C)C)C(=O)N[C@@H](C)C(=O)N[C@@H](CCC(N)=O)C(=O)N[C@@H](CO)C(=O)N1CCC[C@H]1C(=O)NCC(=O)O)C(C)C
B4: Compound No. 119 (peptide)
peptide: [NMeY][Aib]EGTFISDYSIALDR[Aib]AQ[Aib]K([AEEA-AEEA-γGlu-γGlu-C18 diacid])FVEWLLAQSPG-OH
modifications: N-terminus assumed
SMILES: CC[C@H](C)[C@H](NC(=O)[C@H](CO)NC(=O)[C@H](Cc1ccc(O)cc1)NC(=O)[C@H](CC(=O)O)NC(=O)[C@H](CO)NC(=O)[C@@H](NC(=O)[C@H](Cc1ccccc1)NC(=O)[C@@H](NC(=O)CNC(=O)[C@H](CCC(=O)O)NC(=O)C(C)(C)NC(=O)[C@H](Cc1ccc(O)cc1)NC)[C@@H](C)O)[C@@H](C)CC)C(=O)N[C@@H](C)C(=O)N[C@@H](CC(C)C)C(=O)N[C@@H](CC(=O)O)C(=O)N[C@@H](CCCNC(=N)N)C(=O)NC(C)(C)C(=O)N[C@@H](C)C(=O)N[C@@H](CCC(N)=O)C(=O)NC(C)(C)C(=O)N[C@@H](CCCCNC(=O)COCCOCCNC(=O)COCCOCCNC(=O)CC[C@H](NC(=O)CC[C@H](NC(=O)CCCCCCCCCCCCCCCCC(=O)O)C(=O)O)C(=O)O)C(=O)N[C@@H](Cc1ccccc1)C(=O)N[C@H](C(=O)N[C@@H](CCC(=O)O)C(=O)N[C@@H](Cc1c[nH]c2ccccc12)C(=O)N[C@@H](CC(C)C)C(=O)N[C@@H](CC(C)C)C(=O)N[C@@H](C)C(=O)N[C@@H](CCC(N)=O)C(=O)N[C@@H](CO)C(=O)N1CCC[C@H]1C(=O)NCC(=O)O)C(C)C
B5: Compound No. 110 (peptide)
peptide: [NMeY][Aib]EGTFISDYSI[Aib]LDR[Aib]AQ[Aib]K([AEEA-AEEA-γGlu-γGlu-C18 diacid])FVEWLLAQKG-OH
modifications: N-terminus assumed
SMILES: CC[C@H](C)[C@H](NC(=O)[C@H](Cc1ccccc1)NC(=O)[C@@H](NC(=O)CNC(=O)[C@H](CCC(=O)O)NC(=O)C(C)(C)NC(=O)[C@H](Cc1ccc(O)cc1)NC)[C@@H](C)O)C(=O)N[C@@H](CO)C(=O)N[C@@H](CC(=O)O)C(=O)N[C@@H](Cc1ccc(O)cc1)C(=O)N[C@@H](CO)C(=O)N[C@H](C(=O)NC(C)(C)C(=O)N[C@@H](CC(C)C)C(=O)N[C@@H](CC(=O)O)C(=O)N[C@@H](CCCNC(=N)N)C(=O)NC(C)(C)C(=O)N[C@@H](C)C(=O)N[C@@H](CCC(N)=O)C(=O)NC(C)(C)C(=O)N[C@@H](CCCCNC(=O)COCCOCCNC(=O)COCCOCCNC(=O)CC[C@H](NC(=O)CC[C@H](NC(=O)CCCCCCCCCCCCCCCCC(=O)O)C(=O)O)C(=O)O)C(=O)N[C@@H](Cc1ccccc1)C(=O)N[C@H](C(=O)N[C@@H](CCC(=O)O)C(=O)N[C@@H](Cc1c[nH]c2ccccc12)C(=O)N[C@@H](CC(C)C)C(=O)N[C@@H](CC(C)C)C(=O)N[C@@H](C)C(=O)N[C@@H](CCC(N)=O)C(=O)N[C@@H](CCCCN)C(=O)NCC(=O)O)C(C)C)[C@@H](C)CC
B6: Compound No. 124 (peptide)
peptide: YXEGTFISDYSIAXDRXAQKDFVEWLLAQSPG
modifications: N-methyl Tyr 1; Aib at 2,17; Lys(G5-C18 diacid) at 14; 'K1' at 20 and 'E1' at 24 as printed; C-terminal OH

What was measured:
[1] = molecular target: full-length human GLP-1R with an N-terminal FLAG tag (human, UniProt P43220 24-463); assay: cell-based or functional assay
[2] = molecular target: T1, full-length human GIPR with an …; assay: cell-based or functional assay

Binder | Human GLP1R cAMP EC50, HEK293T [1] [nM] | Human GIPR cAMP EC50, HEK293T [2] [pM]
[NMeY][Aib]EGTFISDYSIALDR[Aib]AQ[Aib]K([GGPAPAPgE-C18 diacid])FVNWLLAQSPG-OH [Compound No. 117] | 44.7 | 2
[NMeY][Aib]EGTFISDYSI[Aib]LDR[Aib]K([AEEA-AEEA-γGlu-γGlu-C18 diacid])A[Aib]NFVNWLLAQSPSSGAPPPS-NH2 [Compound No. 109] | 204 | 0.4
YXEGTFISDYSIXXDRXAQXDFVEWLLAQRG (N-methyl Tyr 1; Aib at 2,13,17,20; Lys(G5-C18 diacid) at 14; C-terminal OH) [Compound No. 108] | 41.7 | 0.2
B1 | 89.1 | 0.5
YXEGTFISDYSIALDRXAQXDFVEWLLAQRG (N-methyl Tyr 1; Aib at 2,20; Lys(G5-C18 diacid) at 17; C-terminal OH) [Compound No. 115] | 40.7 | 0.3
B2 | 37.2 | 0.2
[NMeY][Aib]EGTFISDYSI[Aib]LDR[Aib]AA[Aib]K([AEEA-AEEA-γGlu-γGlu-C18 diacid])FVNWLLAQRPSSGAPPPS-NH2 [Compound No. 106] | 12 | 0.4
B3 | 20 | 0.5
B4 | 50.1 | 0.9
[NMeY][Aib]EGTFISDYSI[K1]LDR[E1]AQ[Aib]K([AEEA-AEEA-γGlu-γGlu-C18 diacid])FVNWLLAQRG-OH (reading uncertain; also: 'K1' at 13 and 'E1' at 17, not explained) [Compound No. 122] | 3.55 | 0.8
B5 | 100 | 0.3
YXEGTFISDYSIAXDRXAQXDFVNWLLAQSPG (N-methyl Tyr 1; Aib at 2,17,20; Lys(G5-C20 diacid) at 14; C-terminal OH) [Compound No. 111] | 14.1 | 0.1
YXEGTFISDYSIAXDRXAQXNFVNWLLAQSPG (N-methyl Tyr 1; Aib at 2,17,20; Lys(G5-C18 diacid) at 14; C-terminal OH) [Compound No. 114] | 11.7 | 0.1
YXEGTFISDYSIAXDRXAQXDFVEWLLAQSPG (N-methyl Tyr 1; Aib at 2,17,20; Lys(G5-C18 diacid) at 14; C-terminal OH) [Compound No. 118] | 91.2 | 0.7
YXEGTFISDYSIALDRXAQXDFVNWLLAQSPG (N-methyl Tyr 1; Aib at 2,20; Lys(G5-C18 diacid) at 17; C-terminal OH) [Compound No. 113] | 13.5 | 0.3
B6 | 123 | 0.3
YXEGTFISDYSIAXDRXAQRDFVEWLLAQSPG (N-methyl Tyr 1; Aib at 2,17; Lys(G5-C18 diacid) at 14; C-terminal OH) [Compound No. 120] | 15.8 | 0.3
[NMeY][Aib]EGTFISDYSI[Aib]LDR[Aib]AA[Aib]K([AEEA-AEEA-γGlu-γGlu-C18 diacid])FVNWLLAQSPSSGAPPPS-NH2 [Compound No. 107] | 45.7 | 0.4
[NMeY][Aib]EGTFISDYSIA[K1]DRA[E1]Q[Aib]K([AEEA-AEEA-γGlu-γGlu-C18 diacid])FVNWLLAQRG-OH (reading uncertain; also: 'K1' at 14 and 'E1' at 18, not explained) [Compound No. 123] | 74.1 | 0.5
